Biological target: phosphorylated human eIF2α (amino acids 1–185) solubility-enhanced mutant (P-eIF2α) (human) (UniProt P05198)
Test: MST

Substance | Kd | fold higher affinity than the isolated PP1^D95A
PP1^D95A (human PP1α amino acids 7–330, D95A) (from UniProt P62136 7-330) (enzyme) | 0.65 µM | –
R15A–PP1^D95A (from UniProt O75807;P62136) (complex) | – | 5.4 fold
R15B–PP1^D95A (from UniProt Q5SWA1;P62136) (complex) | – | 3 fold

Reference: PMC5591645
